# Measured values reported in IntAct's records for PubMed 9528767.
# B1: Small nuclear ribonucleoprotein E (Saccharomyces cerevisiae), Q12330 (parent)
# chain: MSNKVKTKAMVPPINCIFNFLQQQTPVTIWLFEQIGIRIKGKIVGFDEFMNVVIDEAVEIPVNSADGKEDVEKGTPLGKILLKGDNITLITSAD
# partner: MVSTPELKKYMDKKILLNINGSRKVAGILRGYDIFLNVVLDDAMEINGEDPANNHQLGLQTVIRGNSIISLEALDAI
# B2: Small nuclear ribonucleoprotein E (Saccharomyces cerevisiae), Q12330 (parent)
# chain: B1 chain
# Variants of: B1
# Conditions: with ruxg_yeast SMX2, P40204
row,Variant,effect of a mutation on the interaction
1,L31S,with no effect
2,G41D,disrupting interaction strength
3,V27E,disrupting interaction strength
4,G84A,with no effect
5,I90R,disrupting interaction strength
6,L81P,with no effect
7,E59A;N63D,with no effect
8,I80F,with no effect
9,N3T,with no effect
10,K83V,with no effect
11,D47H,decreasing interaction strength
12,D47A,decreasing interaction strength
13,K6E,with no effect
14,M50A,decreasing interaction strength
15,G45V,with no effect
16,P76S,with no effect
17,N86A,decreasing interaction strength
18,I54N,disrupting interaction strength
19,N51A,with no effect
20,I29K,disrupting interaction strength
21,M10V,with no effect

# Variants of: B1
# Conditions: with ruxg_yeast SMX2, P40204
# Remark: another data set of the same source
row,Variant,effect of a mutation on the interaction
1,Q22L,disrupting interaction strength

# Variants of: B2
# Conditions: with ruxf_yeast SMX3, P54999
# Sequence of ruxf_yeast SMX3, P54999 (P54999 whole entry): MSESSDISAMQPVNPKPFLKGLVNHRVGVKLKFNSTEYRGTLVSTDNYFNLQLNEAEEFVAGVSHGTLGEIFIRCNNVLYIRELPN
row,Variant,effect of a mutation on the interaction
1,I29K,disrupting interaction strength
2,N51A,decreasing interaction strength
3,I54N,disrupting interaction strength
4,V27E,disrupting interaction strength
5,Q22L,disrupting interaction strength
6,P76S,with no effect
7,E59A;N63D,with no effect
8,I90R,decreasing interaction strength
9,M10V,with no effect
10,D47A,disrupting interaction strength
11,D47H,disrupting interaction strength
12,L81P,disrupting interaction strength
13,G41D,disrupting interaction strength
14,I80F,decreasing interaction strength
15,N3T,increasing interaction strength
16,L31S,with no effect
17,K6E,with no effect
18,M50A,decreasing interaction strength
19,G45V,with no effect
